In patent US20230227537A1:
Where “and” joins values, the source holds several entries; their conditions need not be identical. Equal entries are not always repeated.

Key:
[1] = target: Mouse IgG1 Fc fused SARS-CoV-2 RBD (Sino Biological) (SARS-CoV-2; mouse) (UniProt P0DTC2)
[2] = target: recombinant prefusion stabilized SARS-CoV-2-2P spike protein (SARS-CoV-2) (UniProt P0DTC2)

| Substance | % Signal decrease over 8 min dissociation [1] | Kd [1] | kon [1] | EC50 [2] [µg/mL] | koff [1] |
| --- | --- | --- | --- | --- | --- |
| VHH72-T60W-hIgG1 Fc (P. pastoris supernatant) (Fc fusion) | 13% and 15% | 75.7 nM and 53.1 nM | 41500 M⁻¹ s⁻¹ and 49700 M⁻¹ s⁻¹ |  |  |
| D72-02: VHH72-GS-hIgG1hinge-hIgG1Fc (Fc fusion) |  |  |  | 0.0223 |  |
| VHH72_V100L - (GGGGS)x2-hIgG1.Hinge-hIgG1.Fc (Fc fusion) | 23% and 25% | 0.076 nM and 0.0771 nM | 7.34e+06 M⁻¹ s⁻¹ and 8.26e+06 M⁻¹ s⁻¹ |  | 0.000557 s⁻¹ and 0.000637 s⁻¹ |
| VHH72_D61Q - (GGGGS)x2-hIgG1.Hinge-hIgG1.Fc (Fc fusion) | 8% and 10% | 0.0661 nM and 0.0642 nM | 2.76e+06 M⁻¹ s⁻¹ and 3.19e+06 M⁻¹ s⁻¹ |  | 0.000183 s⁻¹ and 0.000205 s⁻¹ |
